# B1: DEFB1: human β-defensin-1 (SEQ ID NO:63), expressed in cells from pIND/DEFB1 on Ponasterone A induction (protein, listed as Homo sapiens)
# chain: MRTSYLLLFTLCLLLSEMASGGNFLTGLGHRSDHYNCVSSGGQCLYSACPIFTKIQGTCYRGKAKCCK
# Legend:
# Type in all cases: cell-based, human
# PC3 cells [1] = assay: AO/EtBr membrane integrity staining
# Description: (§1) Acridine orange (AO)/ethidium bromide (EtBr) dual staining was performed to identify changes in cell membrane integrity, as well as apoptotic cells by staining the condensed chromatin. AO stains viable cells as well as early apoptotic cells, whereas EtBr stains late stage apoptotic cells that have lost […]. Briefly, cells were seeded into 2 chamber culture slides (BD Falcon, USA). […] In order to determine the effect of PAX2 inhibition on membrane integrity, separate culture slides containing DU145, PC3 and LNCaP were treated with PAX2 siRNA and incubated for 4 days. Following this, cells were washed once with PBS and stained with 2 ml of a mixture (1:1) of AO (Sigma, USA) and EtBr (Promega, USA) (5 ug/ml) solution for 5 min. Following staining, the cells were again washed with PBS. Fluorescence was viewed by a Zeiss LSM 5 Pascal Vario 2 Laser Scanning Confocal Microscope (Carl Zeiss Jena, Germany). The excitation color wheel contain BS505-530 (green) and LP560 (red) filter blocks which allowed for the separation of emitted green light from AO into the green channel and red light from EtBr into the red channel. […] The excitation was provided by a Kr/Ar mixed gas laser at wavelengths of […]. Slides were analyzed under 40× magnification and digital images were stored as uncompressed TIFF files and exported into Photoshop CS software (Adobe Systems, San Jose, Calif.) for image processing and hard copy presentation.
# (§2) Acridine orange (AO)/ethidium bromide (EtBr) dual staining was performed to identify changes in cell membrane integrity, as well as apoptotic cells by staining the condensed chromatin. AO stains viable cells and early apoptotic cells, whereas EtBr stains late stage apoptotic cells that have compromised membranes. Briefly, PC3, DU145 and LNCaP cells were seeded into 2-chamber culture slides (BD Falcon). Cells transfected with empty plasmid or hBD-1 plasmid were induced for 24 or 48 h with media containing 10 μM Pon A, while control cells received fresh growth media at each time point. After induction, cells were washed once with PBS and stained with 2 ml of a mixture (1:1) of AO (Sigma, St. Louis, Mo.) and EtBr (Promega) (5 μg/ml) solution for 5 min and were again washed with PBS.
# (§3) Fluorescence was viewed by a Zeiss LSM 5 Pascal Vario 2 Laser Scanning Confocal Microscope (Carl Zeiss). The excitation color wheel contains BS505-530 (green) and LP560 (red) filter blocks which allowed for the separation of emitted green light from AO into the green channel and red light from EtBr into the red channel. The laser power output and gain control settings within each individual experiment were identical between control and hBD-1 induced cells. The excitation was provided by a Kr/Ar mixed gas laser at wavelengths of […]. Slides were analyzed under 40× magnification and digital images were stored as uncompressed TIFF files and exported into Photoshop CS software (Adobe Systems) for image processing and hard copy presentation.
# DU145 cells [2] = assay: AO/EtBr membrane integrity staining
# Description: as §1, §2, §3
# LNCaP cells [3] = assay: AO/EtBr membrane integrity staining; details: 48 h hBD-1 induction
# Description: as §1, §2, §3
# LNCaP cells [4] = assay: MTT cell viability assay; details: DEFB1 induction 24-72 h
# Description: Reactions were performed three times in triplicate.
# DU145, PC3 and LNCaP cells (1×10^5) were transfected with 0.5 μg of the PAX2 siRNA pool or control siRNA pool using Codebreaker transfection reagent according to the manufacturer's protocol (Promega). Next, cell suspensions were diluted and seeded onto a 96-well plate at 1-5×10^3 cells per well and allowed to grow for 2-, 4- or 6 days. After culture, cell viability was determined by measuring the conversion of 3-[4,5-dimethylthiazol-2yl]-2,5 diphenyl tetrazolium bromide, MTT (Promega), to a colored formazan product. Absorbance was read at 540 nm on a scanning multiwell spectrophotometer.
# (§4) To examine the effects of hBD-1 on cell growth, metabolic 3-[4,5-dimethylthiazol-2yl]-2,5-diphenyl tetrazolium bromide (MTT) assay was performed. DU145, LNCaP, PC3 and PC3/AR+ cells co-transfected with pvgRXR plasmid and pIND/hBD-1 construct or control pvgRXR plasmid were seeded onto a 96-well plate at 1-5×10^3 cells per well. Twenty-four hours after seeding, fresh growth medium was added containing 10 μM Pon A daily to induce hBD-1 expression for 24, 48 and 72 h after which the MTT assay was performed according to the manufacturer's instructions (Promega). Reactions were performed three times in triplicate.
# PC3 cells [5] = assay: Annexin V-FITC/PI flow cytometry
# Description: (§5) The remaining attached cells were harvested by trypsinization and combined with the detached cells and PBS. The cells were then pelleted at 4° C. (500×g) for 5 min, washed twice in PBS, and resuspended in 100 ul of 1× Annexin binding buffer (0.1 M Hepes/NaOH at pH 7.4, 1.4 M NaCl, 25 mM CaCl2) containing 5 μl of Annexin V-FITC and 5 μl of PI. The cells were incubated at room temperature (RT) for 15 min. in the dark, then diluted with 400 μl of 1× Annexin binding buffer and analyzed by FACscan (Becton Dickinson, San Jose, Calif.). All reactions were performed three times.
# (§6) PC3 and DU145 cells transfected with the hBD-1 expression system were grown in 60-mm dishes and induced for 12, 24, and 48 h with 10 μM Pon A. The cells were harvested and analyzed by flow cytometry as described in Example 1.
# DU145 cells [6] = assay: Annexin V-FITC/PI flow cytometry
# Description: as §5, §6
# PC3 cells [7] = assay: Phase contrast microscopy of cell growth; details: PC3, 48 h DEFB1 induction
# Description: (§7) Cell morphology was analyzed by phase contrast microscopy. […] The following day plasmid-containing cells were induced for a period of 48 h with media containing 10 μM Ponasterone A, while control cells received fresh media. The cells were then viewed under an inverted Zeiss IM 35 microscope (Carl Zeiss, Germany). Phase contrast pictures of a field of cells were obtained using the SPOT Insight Mosaic 4.2 camera (Diagnostic Instruments, USA). Cells were examined by phase contrast microscopy under 32× magnification and digital images were stored as uncompressed TIFF files and exported into Photoshop CS software (Adobe Systems, San Jose, Calif.) for image processing and hard copy presentation.
# (§8) The effect of PAX2 knock-down on cell growth was analyzed by phase contrast microscopy as described in Example 1.
# DU145 cells [8] = assay: Phase contrast microscopy of cell growth; details: DU145, 48 h DEFB1 induction
# Description: as §7, §8
# LNCaP cells [9] = assay: Phase contrast microscopy of cell growth; details: 48 h DEFB1 induction
# Description: as §7, §8
# PC3/AR+ cells = assay: MTT cell viability assay; details: PC3/AR+ versus PC3
# Description: as §4
# active caspases = assay: Pan-caspase detection (FAM-VAD-FMK, confocal)
# Description: Detection of caspase activity in the prostate cancer cell lines was performed using APO LOGIX™ Carboxyfluorescin Caspase detection kit (Cell Technology, Mountain View, Calif.). Active caspases were detected through the use of a FAM-VAD-FMK inhibitor that irreversibly binds to active caspases. […] Next, 10 μl of a 30× working dilution of carboxyfluorescein labeled peptide fluoromethyl ketone (FAM-VAD-FMK) was added to 300 μl of media and added to each 35 mm dish. Cells were then incubated for 1 hour at 37° C. under 5% CO2. Then, the medium was aspirated and the cells were washed twice with 2 ml of a 1× Working dilution Wash Buffer. Cells were viewed under differential interference contrast (DIC) or under laser excitation at 488 nm. The fluorescent signal was analyzed using a confocal microscope (Zeiss LSM 5 Pascal) and a 63×DIC oil lens with a Vario 2 RGB Laser Scanning Module.
molecule,measurement,setting,value
B1,membrane integrity (AO/EtBr),"PC3 cells [1]; PC3, 24 h DEFB1 induction",accumulation of EtBr in the cytoplasm
same,membrane integrity (AO/EtBr),"PC3 cells [1]; PC3, 48 h DEFB1 induction",condensed nuclei and appeared yellow
same,membrane integrity (AO/EtBr),"DU145 cells [2]; DU145, 24 h DEFB1 induction",accumulation of EtBr in the cytoplasm
same,membrane integrity (AO/EtBr),"DU145 cells [2]; DU145, 48 h DEFB1 induction",condensed nuclei and appeared yellow
same,membrane integrity (AO/EtBr),LNCaP cells [3],no observable alterations to membrane integrity
same,effect on cell viability,LNCaP cells [4],no significant effect
same,number of apoptotic cells,"PC3 cells [5]; PC3, 12 h DEFB1 induction",10%
same,number of apoptotic cells,"PC3 cells [5]; PC3, 24 h DEFB1 induction",20%
same,number of apoptotic cells,"DU145 cells [6]; DU145, 12 h DEFB1 induction",12%
same,number of apoptotic cells,"DU145 cells [6]; DU145, 24 h DEFB1 induction",34%
same,number of apoptotic cells,"DU145 cells [6]; DU145, 48 h DEFB1 induction",59%
same,cell number,PC3 cells [7],significant reduction in cell number
same,cell number,DU145 cells [8],significant reduction in cell number
same,cell proliferation,LNCaP cells [9],no effect on cell proliferation
same,hBD-1 cytotoxicity with ectopic AR expression,PC3/AR+ cells,no difference between PC3/AR+ and PC3 cells
same,caspase activity (green staining),"active caspases; DU145, 24 h DEFB1 induction",green staining
same,caspase activity (green staining),"active caspases; LNCaP, 24 h DEFB1 induction",no green staining
same,caspase activity (green staining),"active caspases; PC3, 24 h DEFB1 induction",green staining
